The numbers were not newly measured in article doi:10.1101/2023.08.17.553741, which cites them from elsewhere.

The target of the data set is SARS-CoV-2 spike protein (target of cited Kd) (SARS-CoV-2) (UniProt P0DTC2). The settings on record: 3' thiol C3, […] (temperature not stated), PBS 1X.

For orientation: Kd means the constant that tells how readily two partners part at equilibrium. Regarding “TTCCGGTTAATTTATGCTCTACCCGTCCACCTACCGGAATTTTTTTTTTTTTTTTTTTTACGGGTTTGGCGTCGGGCCTGGCGGGGGGATAGTGCGGT [dimeric aptamer (S1-20T-S2-thiolC3)]”, the Kd was 170 pM.
